Experimental data published in patent publication US20170305986A1, “NOVEL TGF-ALPHA MUTANT PROTEINS” (NEUROREPAIR, INC., priority 2014, published 2017).

Assays:
[1] = Physical characteristics of mutants (isoelectric point, hydrophobicity); assay type: physicochemical; settings: compared to wild type hTGFα
[2] = biological target: T1, EGFR (Homo sapiens, UniProt P00533); assay: Cell based (affinity) ELISA: binding of hTGFα to EGFR on A431 cells; settings: compared to wild type hTGFα
T1 construct: A431 cells, which are known to express high levels of EGFR on their surface; host or cells: A431 cells
Procedure: Binding activity of hTGFα to EGFR was also confirmed by cell based ELISA and FACS analysis using A431 cells, which are known to express high levels of EGFR on their surface. For the cell-based assay, A431 cells (ATCC#CRL1555) were seeded into the wells of a 96 well plate. A 1000 ng/ml solution of human TGFα (hTGFα) was serially diluted (two-fold dilutions), aliquots of each dilution added to the immobilized cells, and the plates incubated to allow binding. (FIG. 3A) After washing, bound hTGFα was detected using biotinylated anti-hTGFα (R&D Systems #BAF239) and Streptavidin conjugated with HRP. TMB was added to each well, the reactions stopped after four minutes, and the samples read as described above in paragraph a). (FIG. 3B) The standard curve was generated using Softmax. (FIG. 3C)
BAP060-hTGFα-B (mature hTGFα, aa 40-89, with PelB signal sequence) wild type and CPE™ mutants were transformed into E. coli BL21 (DE3) competent cells, and recombinant protein expression induced by addition of 1 mM IPTG at 37° C. for 3 hours in 96 well format (1st confirmation) or in 14 ml tubes (2nd confirmation). After three hours, the cells were collected and periplasmic proteins prepared by incubating the cells in OS buffer (200 mM Tris-HCl, pH 7.5, 20% sucrose, 1 mM EDTA) with DNAse, RNAse and lysozyme. After addition of lysis buffer (10 mM Tris, pH 7.5, 50 mM KCl, 1 mM EDTA and 0.1% of Na-deoxycholate) to the cells in OS buffer, the cells were centrifuged and the supernatants, which contained the periplasmic fractions, were transferred to microcentrifuge tubes. The concentration of hTGFα was determined by quantitation ELISA, and 25 ng/ml of hTGFα were incubated with A431 cells (ATCC#CRL1555) immobilized on the plate. Bound hTGFα was detected with biotinylated anti-hTGFα (R&D Systems, #BAF239) and Streptavidin conjugated with HRP. The reactions were stopped by addition of HCl after TMB was added to the wells and read immediately. OD450 nm value of the reactions was measured with a Molecular Device SPECTRAmax. The initial screen identified 94 CPE™ mutants that had 1.5 fold higher binding activity compared to the wild type TGFα in the primary screening. The sequences of these CPE™ mutants are shown below in Table 2, while select characteristics for all of the CPE™ mutants can be found in FIG. 11A.
A first confirmation was performed by re-transforming E. coli BL21 cells with plasmids containing the 94 CPE™ mutants, collected the periplasmic fractions after IPTG induction and performed quantitation ELISA and cell based ELISA. This first confirmation identified 37 CPE™ mutants having a higher binding activity compared to the wild type TGFα . The second confirmation identified 27 CPE™ putative hits that consistently had higher binding activity compared to the wild type TGFα. These 27 CPE™ mutants were then tested in a cell based EGFR phosphorylation assay to confirm the functional activity of the CPE™ mutants. (FIGS. 11B and 12B)
In addition, 15 CPS™ mutants (containing up to 5 mutations) having an increased ability to induce the phosphorylation of EGFR, relative to the wild type hTGFα (FIG. 14), were selected for cell based titration ELISA to confirm their binding activities (FIG. 15). Briefly, BAP060-hTGFα-B (mature hTGFα, aa 40-89, with PelB signal sequence) wild type and CPS™ mutants were transformed into E. coli BL21 (DE3) competent cells. Protein was expressed upon the addition of 1 mM IPTG at 37° C. for 3 hours in 96 well format. Cells were collected after induction and periplasmic proteins prepared by incubating the cells in OS buffer with DNAse, RNAse and lysozyme. Lysis buffer was added to the cells in OS buffer, the cells centrifuged, and the supernatants containing the periplasmic fractions transferred to a clean set of microcentrifuge tubes. Concentration of hTGFα in each sample was determined by quantitation ELISA. […]

[3] = biological target: T1, EGFR; assay: Cell based EGFR phosphorylation assay in A431 cells; settings: compared to wild type hTGFα
Procedure: A cell based EGFR phosphorylation assay was set up to determine the binding activity of hTGFα to EGFR using a functional assay. A431 cells were seeded in 96 well formats and were serum starved overnight. The cells were washed in serum free media and incubated with 50 ul of 0, 50, 100 or 200 ng/ml of EGF (FIG. 5A, column 1) or hTGFα (FIG. 5A, column 2) in DMEM at 37° C. for 10 min: The cells were then washed with PBS and lysed. Half of the cell lysate were used to determine the level of total EGFR (FIG. 5C) using Cell Signaling kit #7250 and the other half of the cell lysate were used to determined the level of phosphorylated EGFR (FIG. 5B) using Cell Signaling kit #7240 following vendor's protocols.
EGFR phosphorylation. BAP060-hTGFα -B (mature hTGFα, aa 40-89, with PE1B signal sequence) was transformed into E. coli BL21 (DE3) competent cells. […] Half of the cell lysate were used to determine the level of total EGFR using Cell Signaling kit #7250 and the other half of the cell lysate were used to determined the level of phosphorylated EGFR using Cell Signaling kit #7240 following vendor's protocols.
E. coli BL21 cells were transformed with BAP060-hTGFα -B CPS™ mutants and induced with IPTG at 37° C. The periplasmic fractions after IPTG induction were collected and the expression levels of hTGFα determined by quantitation ELISA, as described above. […]

[4] = system: neuronal stem cell; settings: ICV or intrastriatal infusion over 18 days, rat brain; cited from earlier work
[5] = system: central nervous system (CNS); settings: peripheral route, animal model of Parkinson's disease; cited from earlier work

Row | Substance | Mutant Characteristics: affinity [2] | also measured
1 | BAP060-A050W: CPE™ single-substitution mutant of mature hTGFα | Increased affinity, | –
2 | BAP060-F017L: CPE™ single-substitution mutant of mature hTGFα | Increased affinity, | Mutant Characteristics: P-EGFR induction [3]: P-EGFR induction,
3 | BAP060-Q014G: CPE™ single-substitution mutant of mature hTGFα | Increased affinity, | –
4 | TGF-α: member of the EGF family that binds the EGF receptor | – | neuronal stem cell proliferation [4]: induced neuronal stem cell proliferation; abnormal motor behavior [5]: ameliorates abnormal motor behavior; neurogenesis of the central nervous system [5]: promotes neurogenesis of the central nervous system (CNS)

More lines, main results first:

Row | Mutant Characteristics: affinity [2] | Substance | also measured
5 | Neutral affinity, | BAP060-A041D: CPE™ single-substitution mutant of mature hTGFα | Mutant Characteristics: PI (isoelectric point) [1]: lower PI; Mutant Characteristics: hydrophobicity [1]: decreased
6 | Increased affinity, | BAP060-A046Y: CPE™ single-substitution mutant of mature hTGFα | –
7 | Neutral affinity, | BAP060-E027L: CPE™ single-substitution mutant of mature hTGFα | –
8 | Increased affinity, | BAP060-S036R: CPE™ single-substitution mutant of mature hTGFα | –
